IntAct's records for PubMed 25502805

Experiments:
hbaz_human HBZ = hbaz_human HBZ (UniProt P02008)
vps29_human VPS29 = vps29_human VPS29 (UniProt Q9UBQ0)

Substance	effect of a mutation on the interaction (hbaz_human HBZ)	effect of a mutation on the interaction (vps29_human VPS29)
Hemoglobin subunit beta (Homo sapiens), P68871 D100Y	disrupting interaction strength	
Hemoglobin subunit beta (Homo sapiens), P68871 E102Q	disrupting interaction strength	
Hemoglobin subunit beta (Homo sapiens), P68871 E122V	disrupting interaction strength	
Hemoglobin subunit beta (Homo sapiens), P68871 F104L	disrupting interaction strength	
Hemoglobin subunit beta (Homo sapiens), P68871 F123S	disrupting interaction strength	
Hemoglobin subunit beta (Homo sapiens), P68871 H118Y	disrupting interaction strength	
Hemoglobin subunit beta (Homo sapiens), P68871 L115P	disrupting interaction strength	
Hemoglobin subunit beta (Homo sapiens), P68871 N103Y	with no effect	
Hemoglobin subunit beta (Homo sapiens), P68871 P101A	disrupting interaction strength	
Hemoglobin subunit beta (Homo sapiens), P68871 S10C	disrupting interaction strength	
Hemoglobin subunit beta (Homo sapiens), P68871 V114E	disrupting interaction strength	
Hemoglobin subunit beta (Homo sapiens), P68871 V127G	disrupting interaction strength	
Vacuolar protein sorting-associated protein 35 (Homo sapiens) (from UniProt Q96QK1) D620N		with no effect
Vacuolar protein sorting-associated protein 35 (Homo sapiens) (from UniProt Q96QK1) R524W		with no effect
